# Measured values published in publication PMC3927129.
# How the values were obtained:
# [1] = target: subunit L of the Thermus thermophilus rotary ATPase (L12 membrane ring) (Thermus thermophilus); test: native MS
# [2] = target: membranous subcomplex VO (ICL12) of the Thermus thermophilus rotary ATPase (Thermus thermophilus) (UniProt P74902); test: native MS
Substance,stoichiometry N [1],stoichiometry N [2]
subunit L of the Thermus thermophilus rotary ATPase (L12 membrane ring) (natural protein),12,–
peripheral stalk (subunits E and G) of the Thermus thermophilus rotary ATPase (from UniProt P74901 1-188) (complex),–,2
